Patent publication US20220324953A1 (JIANGSU HENGRUI MEDICINE, published 2022)
Changes are numbered by the printed parent chain.

B1: Hu164-67wl (antibody, human IgG1, lambda)
heavy: not shown
light: ETVVTQEPSLTVSPGGTVTLTCRSSIGAVTTSNYANWVQQKPGQAFRGLIGGTSNRAPWTPARFSGSLLGGKAALTLSGVQPEDEAEYYCALWYSTHYVFGGGTKLTVLGQPKANPTVTLFPPSSEELQANKATLVCLISDFYPGAVTVAWKADGSPVKAGVETTKPSKQSNNKYAASSYLSLTPEQWKSHRSYSCQVTHEGSTVEKTVAPTEC
B2: Hu164-57wl (antibody, human IgG1, lambda, V domains shown)
VH: EVTLKESGPVLVKPTETLTLTCTVSGFSLSTFGVHWIRQPPGKALEWLAVIWRRGGTDYNAAFMSRLTISKDTSKSQVVLTMTNMDPVDTATYYCARDGGFDYWGQGTTVTVSS
VL: ETVVTQEPSLTVSPGGTVTLTCRSSIGAVTTSNYANWVQQKPGQAFRGLIGGTSNRAPWTPARFSGSLLGGKAALTLSGVQPEDEAEYYCALWYSTHYVFGGGTKLTVLG
B3: positive control CTGF antibody mAb1 (antibody, V domains shown)
VH: EGQLVQSGGGLVHPGGSLRLSCAGSGFTFSSYGMHWVRQAPGKGLEWVSGIGTGGGTYSTDSVKGRFTISRDNAKNSLYLQMNSLRAEDMAVYYCARGDYYGSGSFFDCWGQGTLVTVSS
VL: DIQMTQSPSSLSASVGDRVTITCRASQGISSWLAWYQQKPEKAPKSLIYAASSLQSGVPSRFSGSGSGTDFTLTISSLQPEDFATYYCQQYNSYPPTFGQGTKLEIKR
notes: Positive control, from CN1829740B; also called pamrevlumab; FG-3019
B4: Hu164-68wl (antibody, human IgG1, lambda, V domains shown)
VH: B2 VH with A44G, A49G, L80F
VL: ETVVTQEPSFSVSPGGTVTLTCRSSIGAVTTSNYANWVQQTPGQAFRGLIGGTSNRAPGVPDRFSGSILGNKAALTITGAQADDESDYYCALWYSTHYVFGGGTKLTVLG
B5: Hu164-69wl (antibody, human IgG1, lambda, V domains shown)
VH: B2 VH with A44G, A49G, L80F
VL: ESVVTQPPSVSGAPGQRVTISCRSSIGAVTTSNYANWVQQLPGTAFKGLIGGTSNRAPGVPDRFSGSKSGTSASLAITGLQAEDEADYYCALWYSTHYVFGGGTKLTVLG
B6: Hu164-77wl (antibody, human IgG1, lambda, V domains shown)
VH: EVQLQESGPGLVKPSQTLSLTCTVSGFSISTFGVHWIRQHPGKGLEWIGVIWRRGGTDYNAAFMSRVTISKDTSKNQVSLKLSSVTAADTAVYYCARDGGFDYWGQGTTVTVSS
VL: B2 VL
B7: Hu164-87wl (antibody, human IgG1, lambda, V domains shown)
VH: B6 VH with I48L, V67L, L80F
VL: B2 VL
B8: Hu147-22wk (antibody, human IgG1, kappa, V domains shown)
VH: EVQLVESGGGLVQPGGSLRLSCAASGFTFNTYAMNWVRQAPGKGLEWVARIRTKSNNYATYYADSVKDRFTISRDDSKNSLYLQMNSLKTEDTAVYYCVETGFAYWDQGTLVTVSS
VL: EIVLTQSPATLSLSPGERATLSCSASSSVSYMHWFQQKPGQSPKLLIYSTSNLASGIPARFSGSGSGTDYTLTISSLEPEDFAVYYCQQRSSYPLTFGQGTKLEIKR
B9: Hu147-14wk (antibody, human IgG1, kappa, V domains shown)
VH: B8 VH with N30S, A49G
VL: DIQMTQSPSSLSASVGDRVTITCSASSSVSYMHWFQQKPGKSPKLLIYSTSNLASGVPSRFSGSGSGTDYTLTISSLQPEDFATYYCQQRSSYPLTFGQGTKLEIKR
B10: Hu147-12wk (antibody, human IgG1, kappa, V domains shown)
VH: B8 VH with N30S, A49G
VL: B8 VL
B11: Hu147-13wk (antibody, human IgG1, kappa, V domains shown)
VH: B8 VH with N30S, A49G
VL: B8 VL with L46W, I57V
B12: Hu147-15wk (antibody, human IgG1, kappa, V domains shown)
VH: B8 VH with N30S, A49G
VL: B9 VL with M4L, L46W
B13: Hu147-31wk (antibody, human IgG1, kappa, V domains shown)
VH: B8 VH with T28S, K78E, N79S
VL: B8 VL with K44R
B14: Hu147-32wk (antibody, human IgG1, kappa, V domains shown)
VH: B8 VH with T28S, K78E, N79S
VL: B8 VL
B15: Hu147-34wk (antibody, human IgG1, kappa, V domains shown)
VH: B8 VH with T28S, K78E, N79S
VL: B9 VL
B16: Hu147-33wk (antibody, human IgG1, kappa, V domains shown)
VH: B8 VH with T28S, K78E, N79S
VL: B8 VL with L46W, I57V
B17: Hu147-11wk (antibody, human IgG1, kappa, V domains shown)
VH: B8 VH with N30S, A49G
VL: B8 VL with K44R
B18: Hu147-21wk (antibody, human IgG1, kappa, V domains shown)
VH: B8 VH
VL: B8 VL with K44R
B19: Hu147-23wk (antibody, human IgG1, kappa, V domains shown)
VH: B8 VH
VL: B8 VL with L46W, I57V
B20: Hu147-24wk (antibody, human IgG1, kappa, V domains shown)
VH: B8 VH
VL: B9 VL

What follows are binders tested against T1, Cynomolgus CTGF-Fc (fusion protein of cynomolgus CTGF coding region with Fc) (cynomolgus) (assay: ELISA, cyno-CTGF-Fc captured by anti-mFc).
T1 construct: also called cyno-CTGF-mFc protein; cyno-CTGF protein with Fc tag
Method: The binding activity of anti-monkey CTGF antibody to monkey CTGF protein was tested by ELISA assay. A 96-well microtiter plate was directly coated with anti-mFc protein, and then the cyno-CTGF protein with Fc tag was bound to the plate, and then the antibody was added. The signal strength upon the addition of the antibody was used to determine the binding activity of the antibody to cyno-CTGF. The specific experimental procedures were as follows:
The anti-mFc Protein (Sigma, Cat No. M4280) was diluted with PBS, pH 7.4 (Shanghai Yuanpei, Cat No. B320) buffer to a concentration of 2 μg/ml, which was added into the 96-well microtiter plate (Corning, Cat No. CLS3590-100EA) at 50 μl/well, and incubated in an incubator at 37° C. for 2 hours. The liquid was removed, 250 μl/well blocking solution (5% skim milk (BD skim milk, Cat No.232100) diluted in PBS) was added, and incubated in an incubator at 37° C. for 3 hours or at 4° C. overnight (16-18 hours) for blocking. After the blocking was finished, the blocking solution was removed, the plate was washed for 3 times with PBST buffer (PBS containing 0.1% Tween-20, pH 7.4), 50 μl of 1 μg/ml cyno-CTGF-mFc protein was added into each well, incubated in an incubator at 37° C. for 1 hour, and then the plate was washed for 3 times with PBST buffer (PBS containing 0.1% Tween-20, pH 7.4). 50 μl/well of various concentrations of each of the test antibodies (antibodies purified from hybridoma or humanized antibodies) diluted with sample dilution solution were added, and incubated in an incubator at 37° C. for 1 hours. After the incubation was finished, the plate was washed for 3 times with PBST, 50 μl/well of HRP-labeled goat anti-mouse secondary antibody (Jackson Immuno Research, Cat No. 115-035-003) or goat anti-human secondary antibody (Jackson Immuno Research, Cat No. 109-035-003) diluted with sample dilution solution was added, and incubated at 37° C. for 1 hour. The plate was washed for 5 times with PBST, 50 μl/well of TMB chromogenic substrate (KPL, Cat No. 52-00-03) was added, incubated at room temperature for 5-10 min, and 50 μl/well of 1 M H₂SO₄ was added to stop the reaction. The absorbance value was read by a microplate reader (Molecular Devices, VERSA max) at a wavelength of 450 nm, and the data was analyzed with GraphPad Prism 5. The binding of CTGF antibody to cyno CTGF protein was calculated as EC50 value.

T1 sequence (chain, as listed by the source limits assumed): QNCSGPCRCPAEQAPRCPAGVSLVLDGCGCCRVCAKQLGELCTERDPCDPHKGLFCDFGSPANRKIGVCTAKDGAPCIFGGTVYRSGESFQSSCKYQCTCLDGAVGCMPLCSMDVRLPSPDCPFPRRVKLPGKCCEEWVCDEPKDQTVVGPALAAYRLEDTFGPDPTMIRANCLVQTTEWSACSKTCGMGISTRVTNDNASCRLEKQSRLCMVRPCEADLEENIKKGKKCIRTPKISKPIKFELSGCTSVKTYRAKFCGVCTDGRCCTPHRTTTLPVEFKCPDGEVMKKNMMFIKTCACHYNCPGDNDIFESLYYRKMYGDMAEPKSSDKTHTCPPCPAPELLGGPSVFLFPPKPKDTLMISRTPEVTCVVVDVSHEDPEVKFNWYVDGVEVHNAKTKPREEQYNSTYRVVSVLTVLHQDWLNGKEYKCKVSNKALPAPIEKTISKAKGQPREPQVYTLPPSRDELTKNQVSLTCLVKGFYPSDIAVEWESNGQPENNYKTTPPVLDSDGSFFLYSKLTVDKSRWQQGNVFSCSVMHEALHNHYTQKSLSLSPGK

**Q.** For B1, which EC50 is on record?
**A.** The EC50 was 0.028 nM.

**Q.** For B2, which EC50 is on record?
**A.** Its EC50 is 0.029 nM.

**Q.** How did the EC50 turn out when B3 was run?
**A.** Its EC50 is 0.086 nM.

**Q.** B4 was tested. Which EC50 did it give?
**A.** The EC50 was 0.036 nM.

**Q.** With B5 as the binder, how does the EC50 read?
**A.** The EC50 was 0.032 nM.

**Q.** For B6, which EC50 is on record?
**A.** The EC50 was 0.038 nM.

**Q.** B7 was tested. Which EC50 did it give?
**A.** The EC50 was 0.034 nM.

**Q.** For B8, which EC50 is on record?
**A.** Its EC50 is 0.073 nM.

**Q.** B9 was tested. Which EC50 did it give?
**A.** The EC50 was 0.077 nM.

**Q.** B10 was tested. Which EC50 did it give?
**A.** Its EC50 is 0.062 nM.

**Q.** How did the EC50 turn out when B11 was run?
**A.** Its EC50 is 0.043 nM.

**Q.** Which EC50 does the source give for B12 here?
**A.** Its EC50 is 0.053 nM.

**Q.** How did the EC50 turn out when B13 was run?
**A.** The EC50 was 0.07 nM.

**Q.** With B14 as the binder, how does the EC50 read?
**A.** Its EC50 is 0.079 nM.

**Q.** Which EC50 does the source give for B15 here?
**A.** Its EC50 is 0.144 nM.

**Q.** How did the EC50 turn out when B16 was run?
**A.** Its EC50 is 0.044 nM.

**Q.** For B17, which EC50 is on record?
**A.** The EC50 was 0.052 nM.

**Q.** With B18 as the binder, how does the EC50 read?
**A.** The EC50 was 0.053 nM.

**Q.** How did the EC50 turn out when B19 was run?
**A.** Its EC50 is 0.063 nM.

**Q.** B20 was tested. Which EC50 did it give?
**A.** Its EC50 is 0.08 nM.
